Reference: the nanobody polyreactivity screen of Harvey et al. (2022)

Assay: yeast display, Sf9 membrane polyspecificity reagent, FACS + sequencing; frameworks hold sequencing errors
In short: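 Polyreactivity labels are assigned by the sorting gate from which each nanobody was recovered. The gates were low and high (top ~1%), set on anti-HA fluorescence for expression and streptavidin fluorescence for reagent binding. Before sorting, galactose-induced (36–48 hours) yeast display cells were stained for 1 hour at 4 °C with 10% biotinylated, detergent-solubilized Sf9 membrane reagent.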

| Sequence | polyreactivity (PSR sort gate) |
| --- | --- |
| QVQLVESGGGLVQAGGSLRLSCAASGRTFRYNTMGWYRQAPGKERELVASISWGGGSTYYADSVKGRFTISRDNAKNTVYLQMNSLKPEDTAVYYCAARRWGQFRFEYWGQGTQVTVSS | high polyreactivity |
| QVQLVESGGGLVQAGGSLRLSCAASGRTFRYNTMGWYRQAPRKERELFAAISRGGRTYYADSVKGRFTISRDNAKNTVYLQMNSLKPEVTAVDYCAAPAAGDEYDYWGQGTQVTVSS | high polyreactivity |
| QVQLVESGGGLVQAGGSLRLSCAASGRTFRYYAKGWYRQAPGKERELVAAITVTVTSTFYADSVKGRFTISRDNAKNTVYLQMNSLKPEDTAVYYCAKVDRQSPGQYYYWGQGTQVTVSS | low polyreactivity |
| QVQLVESGGGLVQAGGSLRLSCAASGRTFRYYAMGWYRPATGKERELVADISSTGRTYYADSVKGRFTISRDNAKNTVYLQMNSLKPEDTAVYYCNADYFFEFDYWGQGTQVTVSS | low polyreactivity |
| QVQLVESGGGLVQAGGSLRLSCAASGRTFRYYAMGWYRQAPGKERELVAAIDTSSGSTYYADSVKGRFTISRDNAKNTVYLQMNSLKPEDTAVYYCNATWWIPLIYDYWGQGTQVNVSS | low polyreactivity |
| QVQLVESGGGLVQAGGSLRLSCAASGRTFRYYAMGWYRQAPGKERELVAAINRGGSTYYADSVKGRFTISRDNAKNTVYLQMNSLKPEDTAVYYCNFDKYRIVGFHSPYDYWGQGSQVTVSS | high polyreactivity |
| QVQLVESGGGLVQAGGSLRLSCAASGRTFRYYAMGWYRQAPGKERELVAAISRRGGSTFYADSVKGRFTISRDNAKNTVYLQMNSLKPEDTAVYYCAAADRYASDTGGYWGQGTQVTVSS | high polyreactivity |
| QVQLVESGGGLVQAGGSLRLSCAASGRTFRYYAMGWYRQAPGKERELVAAISWSGVRTYYADSVKGRFTISRDNSKNTVYLQMNSLKPEDTAVYYCAKGGYWGQGTQVTVSS | high polyreactivity |
| QVQLVESGGGLVQAGGSLRLSCAASGRTFRYYAMGWYRQAPGKERELVAAITSGGSTYYADSVKGRFTISRDNAKNTVYLQMNSLKPEDTAVYYCNAFFATGVDYWGQGTQVTVSS | high polyreactivity |
| QVQLVESGGGLVQAGGSLRLSCAASGRTFRYYAMGWYRQAPGKERELVADISWSGGRTSYADSVKGRFTISRDNAKNTVYLQMNSLKPEDTAVYYCAKVLYYPSHVYWGQGTQVTVSS | high polyreactivity |
| QVQLVESGGGLVQAGGSLRLSCAASGRTFRYYAMGWYRQAPGKERELVASISSSGSTNYADSVKGRFTISRDNAKNTVYLQMNSLKPEDTAVYYCAAESRYPFIYEYWGQGTQVTVSS | low polyreactivity |
| QVQLVESGGGLVQAGGSLRLSCAASGRTFRYYAMGWYRQAPGKERELVATISSGGSTNYADSVKGRFTISRDNAKNTVYLQMNSLKPEDTAVYYCARYSYRGTNVRYDYWGQGTQVTVSS | high polyreactivity |
| QVQLVESGGGLVQAGGSLRLSCAASGRTFRYYDMGRYRQAPGKERELVAAISSSGDRTYYADSVKGRFTISRDNAKNTVYLQMNSLKPEDTAVYYCAADRGARGDYWGQGTQVTVSS | high polyreactivity |
| QVQLVESGGGLVQAGGSLRLSCAASGRTFRYYDMGWYRQAPGKEREFVAAITWRGGSTYYADSVKGRFTISRDYAKNTVYLQMNSLTPEDTAVYYCATDSLRLYGGKRDLYYWGQGTQVTVSS | low polyreactivity |
| QVQLVESGGGLVQAGGSLRLSCAASGRTFRYYTMGWYRQAPGKEREFVAAISSTGGTYYADSVKGRFTISRDNAKNTVYFQMNSLKPEDTAVYYCAAYRWGILSAYYYAWYGYWGQGTQVTVSS | low polyreactivity |
| QVQLVESGGGLVQAGGSLRLSCAASGRTFSAYAMGWNRQAPGKEREMVAAISSTGRTKYADSVKGRFTISRDNAKNSVYLQMNSLKPEDTAVYYCAARGYYVSPYTYGYWGQGTQVTVSS | high polyreactivity |
| QVQLVESGGGLVQAGGSLRLSCAASGRTFSAYAMGWYRQAPGKERELVAAISRSGGSTYYADSVKGRFTISRDNAKNTVYLQMNSLKPEDTAVYYCAAKGGSGLYYWGQGTQVTVSS | high polyreactivity |
| QVQLVESGGGLVQAGGSLRLSCAASGRTFSAYAMGWYRQAPGKERELVARITSVDSTNYADSVKRRFTISRDNAKNSVYLQINSLKPEDTAVYYCNATFGYPFVDYDDYWGQGTQVTVSS | low polyreactivity |
